Measurements from patent EP4613763A1 (Chuang, Woei-jer, dated 2025).
Substitutions are numbered along the chain they refer to.

B1: protein C7 (designed binder)
chain: VSDVPRDLEVVAATPTSLLISWRHPHFPTRYYRITYGETGGNSPVQEFTVPLQPPTATISGLKPGVDYTITVYAVTDGRNGRLLSIPISINYRT
B2: C7-SS1-His (designed binder, not shown: small tags and cut ends)
chain: B1 chain with L19C, T58C
modifications: Designed disulfide bond between Cys19 and Cys58.
notes: His-tagged C7 variant with one introduced disulfide bond
B3: C7-SL1-LL3-His (designed binder, not shown: small tags and cut ends)
chain: B1 chain with L8C, T39C, D67C, S89C
modifications: Designed disulfide bonds Cys8-Cys89 and Cys39-Cys67.
notes: His-tagged C7 variant with two introduced disulfide bonds
B4: C7-LL2-His (designed binder, not shown: small tags and cut ends)
chain: B1 chain with S17C, S60C
modifications: Designed disulfide bond between Cys17 and Cys60.
notes: as for B2
B5: C7-LL3-His (designed binder, not shown: small tags and cut ends)
chain: B1 chain with T39C, D67C
modifications: Designed disulfide bond between Cys39 and Cys67.
notes: as for B2
B6: C7-SL1-LL2-His (designed binder, not shown: small tags and cut ends)
chain: B1 chain with L8C, S17C, S60C, S89C
modifications: Designed disulfide bonds Cys8-Cys89 and Cys17-Cys60.
notes: as for B3
B7: C7-LL4-His (designed binder, not shown: small tags and cut ends)
chain: B1 chain with K63C, V66C
modifications: Designed disulfide bond between Cys63 and Cys66.
notes: as for B2
B8: C7-SL4-His (designed binder, not shown: small tags and cut ends)
chain: B1 chain with D67C, N91C
modifications: Designed disulfide bond between Cys67 and Cys91.
notes: as for B2
B9: C7-SL1-His (designed binder, not shown: small tags and cut ends)
chain: B1 chain with L8C, S89C
modifications: Designed disulfide bond between Cys8 and Cys89.
notes: as for B2
B10: C7-SL3-His (designed binder)
chain: B1 chain with G37C, V45C
modifications: Designed intramolecular disulfide bond Cys37-Cys45 (printed as G38/V46 in the Met-included numbering).
notes: His-tagged C7 variant with one introduced disulfide bond; not shown: N-terminal Met and C-terminal His tag of the expressed construct
B11: C7-SL2-His (designed binder)
chain: B1 chain with T35C, V45C
modifications: Designed intramolecular disulfide bond Cys35-Cys45 (printed as T36/V46 in the Met-included numbering).
notes: as for B10

molecular target: T1, vascular endothelial growth factor receptor 2 (UniProt P35968 20-764, limits assumed); assay: ELISA, binding affinity to VEGFR2
T1 construct: also called VEGFR2; kinase insert domain receptor
T1 sequence (P35968 20-764 limits assumed): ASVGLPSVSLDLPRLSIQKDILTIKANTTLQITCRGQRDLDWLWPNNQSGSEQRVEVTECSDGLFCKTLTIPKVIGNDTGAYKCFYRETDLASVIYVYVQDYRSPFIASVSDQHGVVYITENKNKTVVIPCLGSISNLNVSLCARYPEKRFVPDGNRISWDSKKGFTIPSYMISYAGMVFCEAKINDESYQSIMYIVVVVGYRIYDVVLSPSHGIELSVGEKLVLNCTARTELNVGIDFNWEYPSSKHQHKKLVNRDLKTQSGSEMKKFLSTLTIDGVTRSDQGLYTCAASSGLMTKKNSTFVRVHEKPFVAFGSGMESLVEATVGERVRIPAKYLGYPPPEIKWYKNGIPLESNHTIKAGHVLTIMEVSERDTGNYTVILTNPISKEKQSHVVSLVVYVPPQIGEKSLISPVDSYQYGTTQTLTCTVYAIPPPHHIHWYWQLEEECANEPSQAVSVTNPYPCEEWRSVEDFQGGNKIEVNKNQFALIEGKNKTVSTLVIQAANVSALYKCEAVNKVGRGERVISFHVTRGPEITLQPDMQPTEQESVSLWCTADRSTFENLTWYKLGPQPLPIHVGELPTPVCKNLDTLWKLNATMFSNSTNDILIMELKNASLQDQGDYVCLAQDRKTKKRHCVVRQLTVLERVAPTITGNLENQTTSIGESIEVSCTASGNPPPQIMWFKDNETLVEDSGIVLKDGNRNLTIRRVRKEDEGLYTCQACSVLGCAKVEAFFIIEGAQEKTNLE

Binder	IC50 [nM]
B1	16.8
B2	17.5
B3	19.2
B4	18.9
B5	9.8
B6	12.8
B7	16.6
B8	18.5
B9	17.6
B10	21.3
B11	17.1
